# Measured values reported in the supplement of paper PMC10724198.
# ± gives the standard deviation of the averaged measurements.
# Tested on: Saccharomyces cerevisiae
# Test: protein stability index of tFT-peptide fusion (C-terminal peptide) (PSI (0-1 scale)); higher = more stable (slower turnover)
# Settings: genetic background: doa10 deletion; temperature: 30 C
# Method: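 MPS profiling in S. cerevisiae of the tFT-X12 degron library: putative degron peptides plus stable controls, 12 aa, fused to the C-terminus of a sfGFP-mCherry timer. Cells are FACS-sorted into 8 mCherry/sfGFP bins and deep-sequenced. PSI runs from 0 (unstable) to 1 (stable). Backgrounds are wild type, das1Δ and doa10Δ at 30 °C, and wild type, das1Δ, cdc34-1 and cdc53-1 at 37 °C; 2-3 technical replicates each.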
# 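Further: PSI is a weighted mean of sequencing reads over stability bins, variants kept only with over 10 reads, mCherry proximal and sfGFP distal, peptide attached via GGGS linker.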
row,Sequence,protein stability index
1,LAGSSSIVVVFG,0.2496 ± 0.0021
2,LAGVVWVVWCVG,0.1814 ± 0.00077
3,LALTRAAITHFF,0.213 ± 0.0085
4,LASLSRPFRAKF,0.828 ± 0.029
5,LCFLVLLSLLLL,0.466 ± 0.022
6,LCHILAIIRRGA,0.429 ± 0.038
7,LCLRCQCIGTLS,0.413 ± 0.016
8,LCSLSIFVLFSC,0.141 ± 0.0032
9,LCSVVIFCLVWG,0.177 ± 0.008
10,LCVWRRAIVWVG,0.0712 ± 0.011
11,LFDYEAGEVMGG,0.656 ± 0.025
12,LFFFLVWSLSVF,0.0187 ± 0.0092
13,LFFFVCYLATVK,0.166 ± 0.011
14,LFGFYFVRCLVW,0.16 ± 0.017
15,LFHFPSWIFCLL,0.24361 ± 0.00024
16,LFIRSFLFFSHF,0.248 ± 0.026
17,LFLTSFRFLRLF,0.0803 ± 0.006
18,LFPLLCLLLPSL,0.521 ± 0.027
19,LFTVCMIIQMVH,0.0793 ± 0.0011
20,LFVGLVSFRIGA,0.399 ± 0.018
21,LGCRFCFVGVVG,0.395 ± 0.01
22,LGPLGWLVLLLV,0.23 ± 0.015
23,LGWFVDFVFVVW,0.244 ± 0.0045
24,LHASCVYTILLV,0.323 ± 0.019
25,LIARYTFLFCLC,0.3501 ± 0.0008
26,LLCGVLFFFWVV,0.311 ± 0.0096

row,Sequence,protein stability index
1,LLFSVLLLGVGF,0.329 ± 0.024
2,LLGSRFVLIRSL,0.114 ± 0.014
3,LLLRSSRLRVLS,0.0852 ± 0.0037
4,LLLRWWLYSCCP,0.319 ± 0.016
5,LLPFSLLDLLLC,0.361 ± 0.029
6,LLQCRTGLASGR,0.652 ± 0.029
7,LLSGLVFVFVLG,0.204 ± 0.0027
8,LLSILSSLPLSR,0.654 ± 0.033
9,LLVFSLLRPFLF,0.414 ± 0.028
10,LLVLRQYFFFFV,0.238 ± 0.012
11,LPCPPSPASLPR,0.437 ± 0.013
12,LPHIFFCLFSLL,0.203 ± 0.01
13,LPPFRFSLPFRR,0.64 ± 0.024
14,LPWLLLISFSYR,0.171 ± 0.0091
15,LQSYIFSVRGIS,0.418 ± 0.054
16,LRMMLLVTIILE,0.0875 ± 0.023
17,LRVGVRSWGGKW,0.439 ± 0.013
18,LSFYLRAVRASL,0.562 ± 0.037
19,LSLFPFLPSPCP,0.674 ± 0.036
20,LSRSAGVGVWVG,0.243 ± 0.018
21,LSTFFIFLRILR,0.517 ± 0.021
22,LVFLYFHFCCGF,0.399 ± 0.017
23,LVFPPVPSLVLC,0.192 ± 0.0059
24,LVFPRWACSLVF,0.263 ± 0.0029
25,LVFRVSLVEVVL,0.196 ± 0.0062
26,LVGLLASWLRFN,0.12 ± 0.0057

row,Sequence,protein stability index
1,LVLALTPFLHSF,0.239 ± 0.0075
2,LVLSVWFFNCTS,0.277 ± 0.0063
3,LVRFYGPLPPFP,0.656 ± 0.016
4,LVRGGLTNLFLF,0.181 ± 0.0012
5,LWFFVVVVVRWV,0.139 ± 0.019
6,LWRFFFVAFVGI,0.359 ± 0.0076
7,MALAVRVVFCGA,0.227 ± 0.0095
8,MALAVRVVICGA,0.103 ± 0.012
9,MLCVFVFIWYFV,0.218 ± 0.013
10,MLFALLTIVFLG,0.166 ± 0.0093
11,MLTYVVRSLVGY,0.331 ± 0.017
12,MWFVGLCLHFFM,0.344 ± 0.0067
13,NAGSHHAAVKLG,0.222 ± 0.018
14,NCMGLLMPLLIT,0.2688 ± 0.00028
15,NFFLLFFFFLSF,0.4656 ± 0.0034
16,PAMPTEPKSSSG,0.644 ± 0.015
17,PFFSSLKYRRDH,0.117 ± 0.024
18,PFFVFSFLFLLH,0.194 ± 0.012
19,PHRLSRFILRLL,0.118 ± 0.0059
20,PLCLFPPLLVFL,0.453 ± 0.022
21,PLFLLTFAITLV,0.152 ± 0.0066
22,PLLLLLPSLLLV,0.149 ± 0.0015
23,PLRRPSWVVLSS,0.357 ± 0.024
24,PPIPTPSPIPLH,0.667 ± 0.011
25,PPPHPPPATFLS,0.401 ± 0.023
26,PPPPPPPSSSSL,0.674 ± 0.013

# Same assay, conditions: genetic background: wild type; temperature: 30 C
row,Sequence,protein stability index
1,LAGSSSIVVVFG,0.297 ± 0.049
2,LAGVVWVVWCVG,0.198 ± 0.03
3,LALTRAAITHFF,0.253 ± 0.026
4,LASLSRPFRAKF,0.8573 ± 0.0074
5,LCFLVLLSLLLL,0.456 ± 0.024
6,LCHILAIIRRGA,0.449 ± 0.05
7,LCLRCQCIGTLS,0.435 ± 0.013
8,LCSLSIFVLFSC,0.147 ± 0.017
9,LCSVVIFCLVWG,0.182 ± 0.019
10,LCVWRRAIVWVG,0.0818 ± 0.021
11,LFDYEAGEVMGG,0.689 ± 0.022
12,LFFFLVWSLSVF,0.0205 ± 0.0042
13,LFFFVCYLATVK,0.191 ± 0.02
14,LFGFYFVRCLVW,0.159 ± 0.0095
15,LFHFPSWIFCLL,0.251 ± 0.014
16,LFIRSFLFFSHF,0.184 ± 0.025
17,LFLTSFRFLRLF,0.0691 ± 0.015
18,LFPLLCLLLPSL,0.522 ± 0.02
19,LFTVCMIIQMVH,0.1 ± 0.055
20,LFVGLVSFRIGA,0.419 ± 0.021
21,LGCRFCFVGVVG,0.439 ± 0.029
22,LGPLGWLVLLLV,0.22 ± 0.021
23,LGWFVDFVFVVW,0.274 ± 0.025
24,LHASCVYTILLV,0.304 ± 0.019
25,LIARYTFLFCLC,0.354 ± 0.024
26,LLCGVLFFFWVV,0.32 ± 0.021

row,Sequence,protein stability index
1,LLFSVLLLGVGF,0.324 ± 0.036
2,LLGSRFVLIRSL,0.121 ± 0.01
3,LLLRSSRLRVLS,0.0918 ± 0.02
4,LLLRWWLYSCCP,0.328 ± 0.017
5,LLPFSLLDLLLC,0.404 ± 0.017
6,LLQCRTGLASGR,0.656 ± 0.043
7,LLSGLVFVFVLG,0.236 ± 0.028
8,LLSILSSLPLSR,0.589 ± 0.024
9,LLVFSLLRPFLF,0.417 ± 0.023
10,LLVLRQYFFFFV,0.224 ± 0.022
11,LPCPPSPASLPR,0.448 ± 0.0041
12,LPHIFFCLFSLL,0.215 ± 0.024
13,LPPFRFSLPFRR,0.658 ± 0.019
14,LPWLLLISFSYR,0.188 ± 0.029
15,LQSYIFSVRGIS,0.45 ± 0.046
16,LRMMLLVTIILE,0.0921 ± 0.025
17,LRVGVRSWGGKW,0.4346 ± 0.0031
18,LSFYLRAVRASL,0.565 ± 0.027
19,LSLFPFLPSPCP,0.669 ± 0.021
20,LSRSAGVGVWVG,0.283 ± 0.022
21,LSTFFIFLRILR,0.342 ± 0.028
22,LVFLYFHFCCGF,0.386 ± 0.013
23,LVFPPVPSLVLC,0.223 ± 0.029
24,LVFPRWACSLVF,0.288 ± 0.037
25,LVFRVSLVEVVL,0.214 ± 0.029
26,LVGLLASWLRFN,0.137 ± 0.012

row,Sequence,protein stability index
1,LVLALTPFLHSF,0.284 ± 0.018
2,LVLSVWFFNCTS,0.283 ± 0.039
3,LVRFYGPLPPFP,0.66 ± 0.011
4,LVRGGLTNLFLF,0.194 ± 0.032
5,LWFFVVVVVRWV,0.136 ± 0.027
6,LWRFFFVAFVGI,0.357 ± 0.021
7,MALAVRVVFCGA,0.27 ± 0.025
8,MALAVRVVICGA,0.107 ± 0.019
9,MLCVFVFIWYFV,0.208 ± 0.024
10,MLFALLTIVFLG,0.182 ± 0.015
11,MLTYVVRSLVGY,0.375 ± 0.023
12,MWFVGLCLHFFM,0.364 ± 0.017
13,NAGSHHAAVKLG,0.266 ± 0.023
14,NCMGLLMPLLIT,0.254 ± 0.037
15,NFFLLFFFFLSF,0.41 ± 0.043
16,PAMPTEPKSSSG,0.667 ± 0.033
17,PFFSSLKYRRDH,0.142 ± 0.023
18,PFFVFSFLFLLH,0.15 ± 0.029
19,PHRLSRFILRLL,0.119 ± 0.019
20,PLCLFPPLLVFL,0.387 ± 0.02
21,PLFLLTFAITLV,0.146 ± 0.028
22,PLLLLLPSLLLV,0.18 ± 0.017
23,PLRRPSWVVLSS,0.38 ± 0.029
24,PPIPTPSPIPLH,0.658 ± 0.017
25,PPPHPPPATFLS,0.407 ± 0.021
26,PPPPPPPSSSSL,0.696 ± 0.037
